Test results reported in patent US9988424.
Where two headings read alike, the source gives them in different places.

Experiments:
[1] = target: C.CAP206 gp140, natively deglycosylated (HIV-1); test: ELISA
[2] = target: C.1086 gp120 Δ7 (HIV-1); test: ELISA
[3] = target: AE.A244 gp120 N160K (HIV-1); test: ELISA
[4] = target: J08 C.97ZA012V1V2N156QN160Q (HIV-1); test: ELISA
[5] = target: B.6240 gp140C (HIV-1); test: ELISA
[6] = target: B.JRFL gp140CF (HIV-1) (UniProt P20871); test: ELISA
[7] = target: Env of AE.CM235 on infected CD4+ T cells (HIV-1)
[8] = target: α4β7 on RPMI 8866 cells (UniProt P13612); test: cells preincubated with ACT-1, adhesion to MADCAM-1 (competitor; 2 ug/ml)
[9] = target: α4β7 on RPMI 8866 cells (UniProt P13612)
[10] = target: AE.A244 gD+ gp120 (HIV-1); test: ELISA
[11] = target: A.Q23 V1V2 tags (HIV-1); test: ELISA
[12] = target: AE.A244 gp120 (HIV-1); test: ELISA
[13] = target: AE.A244 V1V2 Tags (HIV-1); test: ELISA
[14] = target: AE.A244 gp120 delta 11 (HIV-1); test: ELISA
[15] = target: AE.A244 gp120 (HIV-1)
[16] = target: AE.A244 gp120 D11/K169V/V172E/H173Y (HIV-1); test: ELISA
[17] = target: AE.A244 gp120D11/K169V (HIV-1); test: ELISA
[18] = target: AE.427299 gp120D11/Q169K (HIV-1); test: ELISA
[19] = target: AE.427299 gp120D11 (HIV-1); test: ELISA
[20] = target: AE.A244 gp120 delta 11 (HIV-1); test: ELISA; remark: listed apart in the source
[21] = target: Env of Ce1086_B2.LucR.T2A.ecto virus (HIV-1); test: cell-based or functional assay
[22] = target: Env of 703357.2.Q169KI181L virus (HIV-1); test: cell-based or functional assay
[23] = target: Env of CM244.c01.ETH2220LucR.T2A.4 virus (HIV-1); test: cell-based or functional assay
[24] = target: Env of SC22.3C2.LucR.T2A.ecto virus (HIV-1); test: cell-based or functional assay
[25] = target: Env of CM244NW.4.K169Q virus (HIV-1); test: cell-based or functional assay
[26] = target: Env of 427299.c12.Q169K virus (HIV-1); test: cell-based or functional assay
[27] = target: Env of Du422.1.LucR.T2A.ecto virus (HIV-1); test: cell-based or functional assay
[28] = target: Env of 1051.C22.LucR.T2A.ecto virus (HIV-1); test: cell-based or functional assay
[29] = target: Env of 427299.c12 virus (HIV-1); test: cell-based or functional assay
[30] = target: Env of 427299.c12.KL.Q169K/I181L virus (HIV-1); test: cell-based or functional assay
[31] = target: Env of 703357.2.Q169K virus (HIV-1); test: cell-based or functional assay
[32] = target: Env of CM235-2.LucR.T2A.ecto virus (HIV-1); test: cell-based or functional assay
[33] = target: Env of 644039.c01b-CM235LucR.T2A.11 virus (HIV-1); test: cell-based or functional assay
[34] = target: Env of TH023.6.I181L virus (HIV-1); test: cell-based or functional assay
[35] = target: Env of AE.CM244 virus (HIV-1); test: cell-based or functional assay
[36] = target: Env of RHPA.LucR.T2A.ecto virus (HIV-1); test: cell-based or functional assay
[37] = target: Env of CM244NW.6.I181L virus (HIV-1); test: cell-based or functional assay
[38] = target: Env of Du151.2.LucR.T2A.ecto virus (HIV-1); test: cell-based or functional assay
[39] = target: Env of AE.92TH023 virus (HIV-1); test: cell-based or functional assay
[40] = target: Env of Ce1176_A3.LucR.T2A.ecto virus (HIV-1); test: cell-based or functional assay
[41] = target: Env of 703357.2.Q169KR170QI181L virus (HIV-1); test: cell-based or functional assay
[42] = target: Env of 703357.c02 virus (HIV-1); test: cell-based or functional assay
[43] = target: Env of 92TH023 K169Q virus (HIV-1); test: cell-based or functional assay
[44] = target: Env of 427299.c12.H81L virus (HIV-1); test: cell-based or functional assay
[45] = target: Env of 703357.2.I181L virus (HIV-1); test: cell-based or functional assay
[46] = target: Env of WITO.LucR.T2A.ecto virus (HIV-1); test: cell-based or functional assay
[47] = target: Env of 703357.2.Q169KR170Q virus (HIV-1); test: cell-based or functional assay
[48] = target: AE.A244 V1V2 Tags (HIV-1)
[49] = target: AE.A244 V1V2 Tags (HIV-1); test: ELISA; remark: listed apart in the source
[50] = target: 92TH023 V2 cyclic peptide (HIV-1); test: RPMI 8866 cell adhesion to coated peptide, mAb 10 ug/ml
[51] = target: Env of AE.CM235 on infected CD4+ T cells (HIV-1); test: flow cytometry on IMC CM235-infected CD4+ T cells, 10 ug/ml, negative control

CH59 (antibody), sequence (VH): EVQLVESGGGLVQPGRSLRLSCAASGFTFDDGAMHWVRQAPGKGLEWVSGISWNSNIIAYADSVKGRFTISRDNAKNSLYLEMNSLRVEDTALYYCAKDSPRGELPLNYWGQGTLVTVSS
CH59 (antibody), sequence (VL): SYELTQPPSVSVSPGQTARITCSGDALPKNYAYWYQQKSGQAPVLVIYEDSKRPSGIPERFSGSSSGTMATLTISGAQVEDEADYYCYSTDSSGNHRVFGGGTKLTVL
CH01 (antibody), sequence (heavy, form in doubt): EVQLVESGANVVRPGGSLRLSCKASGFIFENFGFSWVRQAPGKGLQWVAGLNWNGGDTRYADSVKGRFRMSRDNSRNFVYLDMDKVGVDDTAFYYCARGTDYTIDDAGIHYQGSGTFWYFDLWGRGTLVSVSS
CH01 (antibody), sequence (light, form in doubt): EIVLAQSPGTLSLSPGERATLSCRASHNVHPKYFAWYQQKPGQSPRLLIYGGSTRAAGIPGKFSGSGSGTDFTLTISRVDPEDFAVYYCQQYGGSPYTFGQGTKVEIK

With CH59 (antibody) the EC50 [1] was over 667 nM, the EC50 [2] was 0.07 nM and the EC50 [3] was 0.04 nM. It also gave an EC50 [4] of over 667 nM.
For PG9 (antibody), the EC50 [5] was 0.3 nM, the EC50 [1] was 279 nM and the EC50 [6] was 273 nM.
With A32 (antibody) the % positive cells [7] was 94% and the FITC MFI [7] was 19900.
Substance ACT-1 (antibody) has a % inhibition [8] of 71.3% and a % inhibition [9] of 53.3%.
For CH01 (antibody), the EC50 [5] was over 667 nM, the EC50 [10] was 0.9 nM and the EC50 [11] was over 66.7 nM. It also gave an EC50 [12] of 1.3 nM, an EC50 [13] of 8.9 nM and an EC50 [14] of 0.47 nM. It also gave an IC50 [15] of 10 to 100 nM, an EC50 [16] of 0.93 µg/mL and an EC50 [17] of 0.13 µg/mL. For the same substance, the EC50 [18] was over 10 µg/mL, the EC50 [19] was over 10 µg/mL and the EC50 [20] was 0.35 µg/mL. For the same substance, the ID50 assayed in A3R5.7 cells, Ce1086 B2.LucR.T2A.ecto [21] was over 25 µg/mL, the ID50 assayed in TZM-bl cells, 703357.2.Q169KI181L [22] was over 25 µg/mL and the ID50 assayed in A3R5.7 cells, CM244.c01.ETH2220LucR.T2A.4 [23] was 0.33 µg/mL. For the same substance, the ID50 assayed in A3R5.7 cells, SC22.3C2.LucR.T2A.ecto [24] was over 25 µg/mL, the ID50 assayed in TZM-bl cells, CM244NW.4.K169Q [25] was 0.05 µg/mL and the ID50 assayed in TZM-bl cells, 427299.c12.Q169K [26] was 0.18 µg/mL. The ID50 assayed in A3R5.7 cells, Du422.1.LucR.T2A.ecto [27] was over 25 µg/mL, the ID50 assayed in A3R5.7 cells, 1051.C22.LucR.T2A.ecto [28] was over 25 µg/mL and the ID50 assayed in TZM-bl cells, 427299.c12 [29] was 0.09 µg/mL. It also gave an ID50 assayed in TZM-bl cells, 427299.c12.KL.Q169K/I181L [30] of 0.15 µg/mL, an ID50 assayed in TZM-bl cells, 703357.2.Q169K [31] of over 25 µg/mL and an ID50 assayed in A3R5.7 cells, CM235-2.LucR.T2A.ecto [32] of 0.04 µg/mL. It also gave an ID50 assayed in A3R5.7 cells, 644039.c01b-CM235LucR.T2A.11 [33] of over 25 µg/mL, an ID50 assayed in TZM-bl cells, TH023.6.I181L [34] of over 25 µg/mL and an ID50 assayed in TZM-bl cells, CM244.ec1 [35] of 0.02 µg/mL. It also gave an ID50 assayed in A3R5.7 cells, RHPA.LucR.T2A.ecto [36] of 8.2 µg/mL, an ID50 assayed in TZM-bl cells, CM244NW.6.I181L [37] of 0.03 µg/mL and an ID50 assayed in A3R5.7 cells, Du151.2.LucR.T2A.ecto [38] of 1.51 µg/mL. The ID50 assayed in TZM-bl cells, TH023.6 [39] was over 25 µg/mL, the ID50 assayed in A3R5.7 cells, Ce1176 A3.LucR.T2A.ecto [40] was 0.04 µg/mL and the ID50 assayed in TZM-bl cells, 703357.2.Q169KR170QI181L [41] was over 25 µg/mL. It also gave an ID50 assayed in TZM-bl cells, 703357.c02 [42] of over 25 µg/mL, an ID50 assayed in TZM-bl cells, TH023.6.K169Q [43] of 22.8 µg/mL and an ID50 assayed in TZM-bl cells, 427299.c12.H81L [44] of 0.16 µg/mL. It also gave an ID50 assayed in TZM-bl cells, 703357.2.I181L [45] of over 25 µg/mL, an ID50 assayed in A3R5.7 cells, WITO.LucR.T2A.ecto [46] of 0.05 µg/mL and an ID50 assayed in TZM-bl cells, 703357.2.Q169KR170Q [47] of over 25 µg/mL. It also gave a Kd [48] of 334 nM, a koff [48] of 0.0076 s⁻¹ and a kon [48] of 23000 M⁻¹ s⁻¹. For the same substance, the EC50 [49] was 1.7 nM and the % inhibition [50] was -11.2%.
PG16 (antibody) was tested, and the EC50 [5] was 10.3 nM.
Synagis (antibody) showed a % of p24+ cells stained (background) [51] of 11% and an FITC MFI [7] of 3600.
